Four molecules from article PMC12302720 (The Journal of Biological Chemistry, 2025) can be followed below.

The target of test [1] is T1, extracellular domain of human CD47 (HuCD47 ECD) (human, UniProt Q08722).
T1 construct: human CD47 extracellular domain, amino acids Gln1-Pro121; source: bought: Acro Biosystems; not shown: His6, C-terminal, kept
The test is described as follows: ELISA; plates coated with 1 ug/ml HuCD47 ECD or CyCD47 ECD in 0.1 M PBS; serially diluted antibodies, 37 °C, 2 h; bound antibody detected with anti-human Fc HRP. As to conditions: both partners purified. (In an ELISA, binding on a coated surface is turned into a signal by an enzyme label.)

Test [2] addresses T2, extracellular domain of cynomolgus CD47 (CyCD47 ECD) (Macaca fascicularis, UniProt A0A2K5X4I2).
T2 construct: cynomolgus CD47 extracellular domain; source: bought: Acro Biosystems
The test is described as follows: BLI; Octet Red96; 5 ug/ml antibody held on anti-human IgG-Fc biosensors; 2-fold dilutions of HuCD47 ECD or CyCD47 ECD in 1 x PBS, 0.1% BSA, 0.02% Tween-20; 1:1 Langmuir global fit; apparent Kd. Particulars: both partners purified. A general note: In BLI a coated tip is dipped into the sample, and binding shifts an interference pattern.

Test [3] concerns the target T1, extracellular domain of human CD47 …. The test is described as above. Particulars: both partners purified.
For test [4], the target named is T3, extracellular domain of cynomolgus CD47 (CyCD47 ECD) (cynomolgus).
T3 chain: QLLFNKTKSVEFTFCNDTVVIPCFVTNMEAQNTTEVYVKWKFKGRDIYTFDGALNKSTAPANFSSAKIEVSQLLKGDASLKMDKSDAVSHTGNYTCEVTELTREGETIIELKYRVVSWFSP
The test is described as follows: ELISA.

B1: H3L2, humanized variant of 1C8 (antibody, V domains shown)
VH: QSVKESGGGLFQPGGSLRLSCSVSGFSLSSYAISWVRQAPGKGLEYIGYISSIGDPYYADWVKGRFTISRDSSTVYLQMTSLRAEDTAVYFCARSYPGNGDLGRLDIWGQGTTVTVSS
VL: DPQLTQSPSFVSASVGDRVTITCRSSQSVYRNKYLSWYQQKPGKAPKLLIYYASTLASGVPSRFSGSGSGTEFTLTISSVQPEDAATYYCAGDYSDDIENAFGQGTKVEIK
Take B1: the binding result in test [1] is recorded as “binds”.

B2: H4L2, humanized variant of 1C8 (antibody, V domains shown)
VH: QSVKESGGGLFQPGGSLRLSCSVSGFSLSSYAISWVRQAPGKGLEYIGYISSIGDPYYADWVKGRFTISRDNSKNTVYLQMTSLRAEDTAVYFCARSYPGNGDLGRLDIWGQGTTVTVSS
VL: DPQLTQSPSFVSASVGDRVTITCRSSQSVYRNKYLSWYQQKPGKAPKLLIYYASTLASGVPSRFSGSGSGTEFTLTISSVQPEDAATYYCAGDYSDDIENAFGQGTKVEIK
Regarding B2, the binding result in test [1] is on record as “binds”.

B3: H4L3, humanized variant of 1C8 (antibody, V domains shown)
VH: QSVKESGGGLFQPGGSLRLSCSVSGFSLSSYAISWVRQAPGKGLEYIGYISSIGDPYYADWVKGRFTISRDNSKNTVYLQMTSLRAEDTAVYFCARSYPGNGDLGRLDIWGQGTTVTVSS
VL: DPMLTQSPSFLSASVGDRVTITCQSSQSVYRNKYLSWYQQKPGKAPKLLIYYASTLASGVPSRFSGSGSGTEFTLTISSLQPEDFATYYCAGDYSDDIENAFGGGTKVEIK
Consider B3, for which the binding result in test [2] is listed as “binds”. Moreover, the “fold lower binding affinity than 1C8” value in test [3] was found to be 3 fold.

B4: Hu5F9-G4, humanized mouse anti-human CD47 antibody (antibody, V domains shown)
VH: QVQLVQSGAEVKKPGASVKVSCKASGYTFTNYNMHWVRQAPGQRLEWMGTIYPGNDDTSYNQKFKDRVTITADTSASTAYMELSSLRSEDTAVYYCARGGYRAMDYWGQGTLVTVSS
VL: DIVMTQSPLSLPVTPGEPASISCRSSQSIVYSNGNTYLGWYLQKPGQSPQLLIYKVSNRFSGVPDRFSGSGSGTDFTLKISRVEAEDVGVYYCFQGSHVPYTFGQGTKLEIK
Take B4: the EC50 in test [4] was found to be 0.04 µg/mL.

The term EC50 denotes the concentration needed to bring the measured effect to its halfway point. Lower therefore signals greater potency.
